B1: c-Myc-tagged wild-type XAP2 [human] / ERα, transfected in HeLa cells [not stated] (parent)
chain 1: MADIIARLREDGIQKRVIQEGRGELPDFQDGTKATFHYRTLHSDDEGTVLDDSRARGKPMELIIGKKFKLPVWETIVCTMREGEIAQFLCDIKHVVLYPLVAKSLRNIAVGKDPLEGQRHCCGVAQMREHSSLGHADLDALQQNPQPLIFHMEMLKVESPGTYQQDPWAMTDEEKAKAVPLIHQEGNRLYREGHVKEAAAKYYDAIACLKNLQMKEQPGSPEWIQLDQQITPLLLNYCQCKLVVEEYYEVLDHCSSILNKYDDNVKAYFKRGKAHAAVWNAQEAQADFAKVLELDPALAPVVSRELRALEARIRQKDEEDKARFRGIFSH
chain 2: MTMTLHTKASGMALLHQIQGNELEPLNRPQLKIPLERPLGEVYLDSSKPAVYNYPEGAAYEFNAAAAANAQVYGQTGLPYGPGSEAAAFGSNGLGGFPPLNSVSPSPLMLLHPPPQLSPFLQPHGQQVPYYLENEPSGYTVREAGPPAFYRPNSDNRRQGGRERLASTNDKGSMAMESAKETRYCAVCNDYASGYHYGVWSCEGCKAFFKRSIQGHNDYMCPATNQCTIDKNRRKSCQACRLRKCYEVGMMKGGIRKDRRGGRMLKHKRQRDDGEGRGEVGSAGDMRAANLWPSPLMIKRSKKNSLALSLTADQMVSALLDAEPPILYSEYDPTRPFSEASMMGLLTNLADRELVHMINWAKRVPGFVDLTLHDQVHLLECAWLEILMIGLVWRSMEHPGKLLFAPNLLLDRNQGKCVEGMVEIFDMLLATSSRFRMMNLQGEEFVCLKSIILLNSGVYTFLSSTLKSLEEKDHIHRVLDKITDTLIHLMAKAGLTLQQQHQRLAQLLLILSHIRHMSNKGMEHLYSMKCKNVVPLYDLLLEMLDAHRLHAPTSRGGASVEETDQSHLATAGSTSSHSLQKYYITGEAEGFPATV

Variants of: B1
Test: co-immunoprecipitation (IP with ERα antibody, Western blot with c-Myc antibody, band densitometry)
Conditions: 24 h after transfection
[1] = 10 nM E2 for 1 h, parent: 1, read off a plot
[2] = DMSO (veh) for 1 h, parent: 0.9, read off a plot

Question: chain 1 MADIIARLREDGIQKRVIQEGRGELPDFQDGTKATFHYRTLHSDDEGTVLDDSRARGKPMELIIGKKFKLPVWETIVCTMREGEIAQFLCDIKHVVLYPLVAKSLRNIAVGKDPLEGQRHCCGVAQMREHSSLGHADLDALQQNPQPLIFHMEMLKVESPGTYQQDPWAMTDEEKAKAVPLIHQEGNRLYREGHVKEAAAKYYDAIACLKNLQMKEQPGSPEWIQLDQQITPLLLNYCQCKLVVEEYYEVLDHCSSILNKYDDNVKAYFKWGKAHAAVWNAQEAQADFAKVLELDPALAPVVSRELRALEARIRQKDEEDKARFRGIFSH [chain 1 R271W] was tested. Which ratio to parent [1] did it give?
Answer: 0.68

Question: And the ratio to parent [2]?
Answer: 0.85

Question: chain 1 MADIIARLREDGIQKRVIQEGRGELPDFQDGTKATFHYRTLHSDDEGTMLDDSRARGKPMELIIGKKFKLPVWETIVCTMREGEIAQFLCDIKHVVLYPLVAKSLRNIAVGKDPLEGQRHCCGVAQMREHSSLGHADLDALQQNPQPLIFHMEMLKVESPGTYQQDPWAMTDEEKAKAVPLIHQEGNRLYREGHVKEAAAKYYDAIACLKNLQMKEQPGSPEWIQLDQQITPLLLNYCQCKLVVEEYYEVLDHCSSILNKYDDNVKAYFKRGKAHAAVWNAQEAQADFAKVLELDPALAPVVSRELRALEARIRQKDEEDKARFRGIFSH [chain 1 V49M] was tested. Which ratio to parent [1] did it give?
Answer: 0.97

Question: And the ratio to parent [2]?
Answer: 0.85

Reference: publication PMC3184960
